Changes are numbered by the printed parent chain. Names may count otherwise.
B1: PeGluDH-A164G: PeGluDH mutant A164G, SEQ ID NO. 5 (protein)
chain: MIESVDHFLARLQQRDPAQPEFHQAVEEVLRSLWPFLEQNPHYLEAGILERMVEPERAVLFRVSWVDDQGKVQVNRGYRIQMSSAIGPYKGGLRFHPSVNLGVLKFLAFEQVFKNSLTSLPMGGGKGGSDFDPKGKSDAEVMRFCQAFMSELYRHIGADLDVPGGDIGVGAREIGFLFGQYKRLANQFTSVLTGKGMTYGGSLIRPEATGYGCVYFAEEMLKRQEQRIDGRRVAISGSGNVAQYAARKVMDLGGKVISLSDSEGTLFCEAGLTDEQWDALMELKNVKRGRISELAGRFGLEFRKGQTPWSLACDIALPCATQNELNADDARTLLRNGCICVAEGANMPTTLDAVDIFIEAGILYAPGKASNAGGVAVSGLEMSQNAMRLLWTAGEVDSKLHHIMQSIHHVCVHYGEEADGRINYVKGANIAGFVKVADAMLAQGVV
modifications: Pseudomonas entomophila glutamate dehydrogenase mutant
B2: CgGluDH-A166G: CgGluDH mutant A166G, SEQ ID NO. 3 (protein)
chain: MTVDEQVSNYYDMLLKRNAGEPEFHQAVAEVLESLKIVLEKDPHYADYGLIQRLCEPERQLIFRVPWVDDQGQVHVNRGFRVQFNSALGPYKGGLRFHPSVNLGIVKFLGFEQIFKNSLTGLPIGGGKGGSDFDPKGKSDLEIMRFCQSFMTELHRHIGEYRDVPGGDIGVGGREIGYLFGHYRRMANQHESGVLTGKGLTWGGSLVRTEATGYGCVYFVSEMIKAKGESISGQKIIVSGSGNVATYAIEKAQELGATVIGFSDSSGWVHTPNGVDVAKLREIKEVRRARVSVYADEVEGATYHTDGSIWDLKCDIALPCATQNELNGENAKTLADNGCRFVAEGANMPSTPEAVEVFRERDIRFGPGKAANAGGVATSALEMQQNASRDSWSFEYTDERLQVIMKNIFKTCAETAAEYGHENDYVVGANIAGFKKVADAMLAQGVI
modifications: Corynebacterium glutamicum glutamate dehydrogenase mutant
B3: CgGluDH-V376A: CgGluDH mutant V376A, SEQ ID NO. 4 (protein)
chain: B2 chain with G166A, V376A
modifications: Corynebacterium glutamicum glutamate dehydrogenase mutant
B4: CsGluDH-A164G: CsGluDH mutant A164G, SEQ ID NO. 17 (protein)
chain: MSKYVDRVIAEVEKKYADEPEFVQTVEEVLSSLGPVVDAHPEYEEVALLERMVIPERVIEFRVPWEDDNGKVHVNTGYRVQFNGAIGPYKGGLRFAPSVNLSIMKFLGFEQAFKDSLTTLPMGGAKGGSDFDPNGKSDREVMRFCQAFMTELYRHIGPDIDVPGGDLGVGAREIGYMYGQYRKIVGGFYNGVLTGKARSFGGSLVRPEATGYGSVYYVEAVMKHENDTLVGKTVALAGFGNVAWGAAKKLAELGAKAVTLSGPDGYIYDPEGITTEEKINYMLEMRASGRNKVQDYADKFGVQFFPGEKPWGQKVDIIMPCATQNDVDLEQAKKIVANNIKYYIEVANMPTTNEALRFLMQQPNMVVAPSKAVNAGGVLVSGFEMSQNSERLSWTAEEVDSKLHQVMTDIHDGSAAAAERYGLGYNLVAGANIVGFQKIADAMMAQGIAW
modifications: Clostridium symbiosum glutamate dehydrogenase mutant
B5: CsGluDH-V378A: CsGluDH mutant V378A, SEQ ID NO. 18 (protein)
chain: B4 chain with G164A, V378A
modifications: Clostridium symbiosum glutamate dehydrogenase mutant
B6: BtGluDH-A155G: BtGluDH mutant A155G, SEQ ID NO. 19 (protein)
chain: MVTENTQGKEQKQESMNLLQSTQTVIKEALEKLGYQESMYELLKEPLRVLTVRIPVRMDNGEVKVFTGYRAQHNDAVGPTKGGIRFHPDVTEDEVKALSIWMSLKAGIVDLPYGGGKGGIICDPREMSFRELERLSRGYVRAVSQIVGPTKDIPGPDVFTNSQIMAWMMDEYSRIREFDSPGFITGKPIALGGSHGRETATAKGVTICIREAAKRRGIDLKGARVVVQGFGNAGSYLSKFMHDAGAKVVGISDAYGALYDPNGLDIDYLLDRRDSFGTVTKLFTNTITNKELLELDCDILVPAAIENQITAANAHNIKAKIVVEAANGPTTLEATKILTERGILLVPDVLASAGGVTVSYFEWVQNNQGYYWSEEEVQEKLEKVMVKAFENVYSLAQTRRVDMRLAAYMVGVRKMAEASRFRGWV
modifications: Brevibacillus thermoruber glutamate dehydrogenase mutant

Experiments:
[1] = Standard enzyme activity measurement toward PPO, crude enzyme (per volume fermentation broth); type: biochemical; conditions: toward PPO; for Fold change: enzyme activity of mutant versus wild type; for Enzyme activity of mutants (U/mL): crude enzyme, standard system, N.D. = no detectable activity
Description: The preserved recombinant E. coli is streaked onto the plate for activation. Single colonies are picked and inoculated into 5 mL LB liquid medium containing 50 μg/mL kanamycin and cultured at 37° C. for 12 h. The culture is transferred to 50 mL fresh LB liquid medium containing 50 μg/mL kanamycin at a 2% inoculum, and then incubated at 37° C. until the OD600 reaches 0.6; after that, add IPTG to a final concentration of 0.5 mM, and then proceed with induction culture under the temperature of 18° C. for 16 h.
After the cultivation, the culture is centrifuged at 10000 rpm for 10 min; discard supernatant, and collect cells. The harvested cells are washed for 2 times using pH 7.5 50 mM phosphate buffer. After that, the cells are re-suspend into the pH 7.5 phosphate buffer and disrupted ultrasonically (400W for 30 times, Ultrasonic time is 3 s, and the interval is 7 s). The cell disrupted solution is centrifuged at 12000 g for 5 min at 4° C. to remove the precipitate, and the supernatant obtained is the crude enzyme containing recombinant glutamate dehydrogenase
The standard enzyme activity measurement system: Appropriate amount of enzyme, 100 mM substrate, 10 mM coenzyme (NADH or NADPH), 500 mM NH4^+ ((NH4)2SO4); total system volume is up to 400 μL; reaction medium is pH 7.5 phosphate buffer. 35° C. reaction for 10 min; after that, add 40 uL 5 M NaOH to terminate reaction.
Definition of enzyme activity unit: The quantity of enzyme as required by generation of 1 μmol L-phosphinothricin per minute under standard reaction conditions.
Proceed with induction culture of constructed mutants, and prepare crude enzyme solution.

[2] = Preparation of L-phosphinothricin by coupling glutamate dehydrogenase with glucose dehydrogenase; type: biochemical; conditions: 500 mM PPO, NAD+, GluDH cells 1.25 g/L
Description: The reaction process is monitored by measuring the concentration of substrate in the reaction solution applying high-performance liquid chromatography (HPLC). HPLC analysis method is stated as follows: column model: Pntulips® QS-C18, 5 μm, 4.6 mm×250 mm. Mobile phase: 50 mM (NH4)2HPO4, added 1% of 10% tetrabutyl ammonium hydroxide, adjusted to pH 3.6 with 50% phosphoric acid(mass fraction), added 8% acetonitrile. Detective wave length is 205 nm; flow rate is 1.0 mL/min. Column temperature is 40° C.
The enantiomeric excess and concentration of product are determined through pre-column derivatization high-performance liquid chromatography; the specific analysis method is stated as follows:
(1) HPLC condition: column model: Pntulips® QS-C18, 5 μm, 4.6 mm×250 mm. Mobile phase: 50 mM Sodium acetate: Acetonitrile=8: 0.5 (v/v). Detective wave length: 338 nm. Flow rate: 0.85 mL/min. Column temperature: 30° C.
(2) Derivatization reagent: Weigh 0.03 g phthalaldehyde and 0.1 g N-acetyl-L-cysteine, and use 400 uL ethanol for solubilization; after that, add 4 mL 0.2 mol/L borate buffer (pH 9.8) and shake for dissolution prior to storage in the fridge under the temperature of 4° C. (no more than 4 days).
(3) Derivatization reaction and analysis: Add 150 μL derivatization reagent into 100 μL sample, mix and incubate at 25° C. for 5 min, and then inject 20 μL for analysis.
Culture recombinant E. coli expressing glutamate dehydrogenase (PpGluDH) and glucose dehydrogenase (BsGDH-2M, SEQ ID NO. 21) with method in Step 3 of Embodiment 1; proceed with centrifugal collection of cells and ultrasonic cell disruption to prepare crude enzyme solution.
(§1) The final volume of the reaction is 30 mL; each sample contains 500 mM substrate PPO, 600 mM glucose, 250 mM (NH4)2SO4 and 0.5 mM NADP^+. Concentration of glutamate dehydrogenase cells (dry weight) is 1.0 g/L; concentration of glucose dehydrogenase cells (dry weight) is 1.25 g/L. Use water bath to control the reaction temperature at 35° C.; titrate ammonia to control pH at 7.5 during the reaction process. Use non-chiral HPLC to determine residual concentration of PPO after reaction for 6 h; meanwhile, use pre-column derivatization HPLC to determine the concentration and ee value of formed L-phosphinothricin.
as §1, with “0.5” for “1.0”
as §1, with “NAD^+.” for “NADP^+.”, “1.25” for “1.0”
The final volume of the reaction is 30 mL; each sample contains 500 mM substrate PPO, 600 mM glucose, 250 mM (NH4)2SO4 and 0.5 mM NAD^+. Concentration of glutamate dehydrogenase cells (dry weight) is 1.25 g/L; concentration of glucose dehydrogenase cells (dry weight) is 1.25 g/L. Use water bath to control the reaction temperature at 35° C.; titrate ammonia to control pH at 7.5 during the reaction process. […]

| Molecule | Fold change [1] | Enzyme activity of mutants (U/mL) [1] [U/mL] | also measured |
| --- | --- | --- | --- |
| B1 | 110 | 11.29 | – |
| B2 | 31 | 0.34 | – |
| B3 | 225 | 2.48 | – |
| B4 | – | 2.61 | concentration of formed L-phosphinothricin ([2]; 35° C., pH 7.5, 6 h): 79.6 g/L; residual PPO ([2]; 35° C., pH 7.5, 6 h): 0 mM; substrate conversion ([2]; 35° C., pH 7.5, 6 h): 100% |
| B5 | – | 1.76 | concentration of formed L-phosphinothricin ([2]; 35° C., pH 7.5, 12 h): 78.5 g/L; residual PPO ([2]; 35° C., pH 7.5, 12 h): 1.8 mM; substrate conversion ([2]; 35° C., pH 7.5, 12 h): 99.6% |
| B6 | – | 0.50 | concentration of formed L-phosphinothricin ([2]; 50° C., pH 7.5, 6 h): 80.3 g/L; residual PPO ([2]; 50° C., pH 7.5, 6 h): 1.4 mM; substrate conversion ([2]; 50° C., pH 7.5, 6 h): 99.7% |
